# According to the supplement of paper PMC5998384:
# Tests used:
# HeLa Kyoto [1] = experiment: melting temperature (median over replicates), in situ; higher = more thermally stable
# HeLa Kyoto [2] = experiment: solubility in G1/S (NP-40 vs SDS abundance) (log2 ratio); higher = more soluble; conditions: cell cycle stage: G1/S
# HeLa Kyoto [3] = experiment: solubility change mitosis vs G1/S (difference of NP-40 vs SDS log2 ratios) (log2 ratio difference); higher = more soluble in mitosis
# HeLa Kyoto [4] = experiment: thermal stability score vs G1/S (z-score of summed log2 fold changes over temperatures); higher = more thermally stable than in G1/S
# [5] = cell cycle stage: early G1 (4.5 h after nocodazole release)
# 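Wherever melting temperature (median over replicates), in situ is given: HeLa Kyoto cells synchronized by double thymidine or nocodazole block, proteins quantified by TMT10plex mass spectrometry, three independent biological replicates.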
# 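Wherever solubility change mitosis vs G1/S (difference of NP-40 vs SDS log2 ratios) is given: synchronized HeLa Kyoto cells (double thymidine block for G1/S, nocodazole release for mitosis), protein amounts in NP-40 versus SDS lysates quantified by mass spectrometry, three biological replicates.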
# 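Wherever solubility in G1/S (NP-40 vs SDS abundance) is given: HeLa Kyoto cells arrested at G1/S by double thymidine block, proteins quantified by TMT10plex mass spectrometry in mild NP-40 versus SDS extracts, three biological replicates.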
# 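Wherever thermal stability score vs G1/S (z-score of summed log2 fold changes over temperatures) is given: synchronized HeLa Kyoto cells, proteins quantified by TMT10plex mass spectrometry, three biological replicates, mitosis taken 0.5 h after nocodazole release, G1/S directly after double thymidine block.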
# ANKH, sequence (chain, as listed by the source): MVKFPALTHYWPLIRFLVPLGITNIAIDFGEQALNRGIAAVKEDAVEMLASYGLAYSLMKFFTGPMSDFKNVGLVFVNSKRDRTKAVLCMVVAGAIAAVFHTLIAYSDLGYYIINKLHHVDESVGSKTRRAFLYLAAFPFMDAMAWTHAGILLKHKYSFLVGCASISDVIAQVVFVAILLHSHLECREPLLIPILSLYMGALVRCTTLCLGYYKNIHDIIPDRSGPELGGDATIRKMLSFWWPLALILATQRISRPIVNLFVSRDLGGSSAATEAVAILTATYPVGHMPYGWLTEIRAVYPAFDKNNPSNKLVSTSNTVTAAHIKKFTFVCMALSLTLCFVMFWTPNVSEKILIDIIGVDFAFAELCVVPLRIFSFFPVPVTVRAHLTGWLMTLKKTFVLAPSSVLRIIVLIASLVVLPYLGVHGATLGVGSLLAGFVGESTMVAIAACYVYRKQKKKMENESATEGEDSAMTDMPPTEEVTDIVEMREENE
Substance,melting temperature (HeLa Kyoto [1]; cell cycle stage: G1/S) [°C],melting temperature (HeLa Kyoto [1]; cell cycle stage: mitosis) [°C],solubility in G1/S (log2) (HeLa Kyoto [2]),solubility change mitosis (log2) (HeLa Kyoto [3]),thermal stability score (HeLa Kyoto [4]; [5]),thermal stability score (HeLa Kyoto [4]; cell cycle stage: mitosis)
MAAQKDQQKDAEAEGLSGTTLLPKLIPSGAGREWLERRRATIRPWSTFVDQQRFSRPRNLGELCQRLVRNVEYYQSNYVFVFLGLILYCVVTSPMLLVALAVFFGACYILYLRTLESKLVLFGREVSPAHQYALAGGISFPFFWLAGAGSAVFWVLGATLVVIGSHAAFHQIEAVDGEELQMEPV [RABAC1],59.6,58.3,-0.392,-0.0714,-0.0851,-0.547
MASCPDSDNSWVLAGSESLPVETLGPASRMDPESERALQAPHSPSKTDGKELAGTMDGEGTLFQTESPQSGSILTEETEVKGTLEGDVCGVEPPGPGDTVVQGDLQETTVVTGLGPDTQDLEGQSPPQSLPSTPKAAWIREEGRCSSSDDDTDVDMEGLRRRRGREAGPPQPMVPLAVENQAGGEGAGGELGISLNMCLLGALVLLGLGVLLFSGGLSESETGPMEEVERQVLPDPEVLEAVGDRQDGLREQLQAPVPPDSVPSLQNMGLLLDKLAKENQDIRLLQAQLQAQKEELQSLMHQPKGLEEENAQLRGALQQGEAFQRALESELQQLRARLQGLEADCVRGPDGVCLSGGRGPQGDKAIREQGPREQEPELSFLKQKEQLEAEAQALRQELERQRRLLGSVQQDLERSLQDASRGDPAHAGLAELGHRLAQKLQGLENWGQDPGVSANASKAWHQKSHFQNSREWSGKEKWWDGQRDRKAEHWKHKKEESGRERKKNWGGQEDREPAGRWKEGRPRVEESGSKKEGKRQGPKEPPRKSGSFHSSGEKQKQPRWREGTKDSHDPLPSWAELLRPKYRAPQGCSGVDECARQEGLTFFGTELAPVRQQELASLLRTYLARLPWAGQLTKELPLSPAFFGEDGIFRHDRLRFRDFVDALEDSLEEVAVQQTGDDDEVDDFEDFIFSHFFGDKALKKRSGKKDKHSQSPRAAGPREGHSHSHHHHHRG [PBXIP1],55.4,53.7,-0.166,-0.0444,-1.68,0.474
ANKH,54.9,58.2,-0.292,0.155,-1.21,-1.75
MAEEEVAKLEKHLMLLRQEYVKLQKKLAETEKRCALLAAQANKESSSESFISRLLAIVADLYEQEQYSDLKIKVGDRHISAHKFVLAARSDSWSLANLSSTKELDLSDANPEVTMTMLRWIYTDELEFREDDVFLTELMKLANRFQLQLLRERCEKGVMSLVNVRNCIRFYQTAEELNASTLMNYCAEIIASHWDDLRKEDFSSMSAQLLYKMIKSKTEYPLHKAIKVEREDVVFLYLIEMDSQLPGKLNEADHNGDLALDLALSRRLESIATTLVSHKADVDMVDKSGWSLLHKGIQRGDLFAATFLIKNGAFVNAATLGAQETPLHLVALYSSKKHSADVMSEMAQIAEALLQAGANPNMQDSKGRTPLHVSIMAGNEYVFSQLLQCKQLDLELKDHEGSTALWLAVQHITVSSDQSVNPFEDVPVVNGTSFDENSFAARLIQRGSHTDAPDTATGNCLLQRAAGAGNEAAALFLATNGAHVNHRNKWGETPLHTACRHGLANLTAELLQQGANPNLQTEEALPLPKEAASLTSLADSVHLQTPLHMAIAYNHPDVVSVILEQKANALHATNNLQIIPDFSLKDSRDQTVLGLALWTGMHTIAAQLLGSGAAINDTMSDGQTLLHMAIQRQDSKSALFLLEHQADINVRTQDGETALQLAIRNQLPLVVDAICTRGADMSVPDEKGNPPLWLALANNLEDIASTLVRHGCDATCWGPGPGGCLQTLLHRAIDENNEPTACFLIRSGCDVNSPRQPGANGEGEEEARDGQTPLHLAASWGLEETVQCLLEFGANVNAQDAEGRTPIHVAISSQHGVIIQLLVSHPDIHLNVRDRQGLTPFACAMTFKNNKSAEAILKRESGAAEQVDNKGRNFLHVAVQNSDIESVLFLISVHANVNSRVQDASKLTPLHLAVQAGSEIIVRNLLLAGAKVNELTKHRQTALHLAAQQDLPTICSVLLENGVDFAAVDENGNNALHLAVMHGRLNNIRVLLTECTVDAEAFNLRGQSPLHILGQYGKENAAAIFDLFLECMPGYPLDKPDADGSTVLLLAYMKGNANLCRAIVRSGARLGVNNNQGVNIFNYQVATKQLLFRLLDMLSKEPPWCDGSYCYECTARFGVTTRKHHCRHCGRLLCHKCSTKEIPIIKFDLNKPVRVCNICFDVLTLGGVS [ANKFY1],48.8,49.3,-0.0647,-0.175,0.358,1.34
MPSKFSCRQLREAGQCFESFLVVRGLDMETDRERLRTIYNRDFKISFGTPAPGFSSMLYGMKIANLAYVTKTRVRFFRLDRWADVRFPEKRRMKLGSDISKHHKSLLAKIFYDRAEYLHGKHGVDVEVQGPHEARDGQLLIRLDLNRKEVLTLRLRNGGTQSVTLTHLFPLCRTPQFAFYNEDQELPCPLGPGECYELHVHCKTSFVGYFPATVLWELLGPGESGSEGAGTFYIARFLAAVAHSPLAAQLKPMTPFKRTRITGNPVVTNRIEEGERPDRAKGYDLELSMALGTYYPPPRLRQLLPMLLQGTSIFTAPKEIAEIKAQLETALKWRNYEVKLRLLLHLEELQMEHDIRHYDLESVPMTWDPVDQNPRLLTLEVPGVTESRPSVLRGDHLFALLSSETHQEDPITYKGFVHKVELDRVKLSFSMSLLSRFVDGLTFKVNFTFNRQPLRVQHRALELTGRWLLWPMLFPVAPRDVPLLPSDVKLKLYDRSLESNPEQLQAMRHIVTGTTRPAPYIIFGPPGTGKTVTLVEAIKQVVKHLPKAHILACAPSNSGADLLCQRLRVHLPSSIYRLLAPSRDIRMVPEDIKPCCNWDAKKGEYVFPAKKKLQEYRVLITTLITAGRLVSAQFPIDHFTHIFIDEAGHCMEPESLVAIAGLMEVKETGDPGGQLVLAGDPRQLGPVLRSPLTQKHGLGYSLLERLLTYNSLYKKGPDGYDPQFITKLLRNYRSHPTILDIPNQLYYEGELQACADVVDRERFCRWAGLPRQGFPIIFHGVMGKDEREGNSPSFFNPEEAATVTSYLKLLLAPSSKKGKARLSPRSVGVISPYRKQVEKIRYCITKLDRELRGLDDIKDLKVGSVEEFQGQERSVILISTVRSSQSFVQLDLDFNLGFLKNPKRFNVAVTRAKALLIIVGNPLLLGHDPDWKVFLEFCKENGGYTGCPFPAKLDLQQGQNLLQGLSKLSPSTSGPHSHDYLPQEREGEGGLSLQVEPEWRNEL [MOV10],52.9,51.1,-0.355,-0.141,-0.801,-2.06
MIAAQLLAYYFTELKDDQVKKIDKYLYAMRLSDETLIDIMTRFRKEMKNGLSRDFNPTATVKMLPTFVRSIPDGSEKGDFIALDLGGSSFRILRVQVNHEKNQNVHMESEVYDTPENIVHGSGSQLFDHVAECLGDFMEKRKIKDKKLPVGFTFSFPCQQSKIDEAILITWTKRFKASGVEGADVVKLLNKAIKKRGDYDANIVAVVNDTVGTMMTCGYDDQHCEVGLIIGTGTNACYMEELRHIDLVEGDEGRMCINTEWGAFGDDGSLEDIRTEFDREIDRGSLNPGKQLFEKMVSGMYLGELVRLILVKMAKEGLLFEGRITPELLTRGKFNTSDVSAIEKNKEGLHNAKEILTRLGVEPSDDDCVSVQHVCTIVSFRSANLVAATLGAILNRLRDNKGTPRLRTTVGVDGSLYKTHPQYSRRFHKTLRRLVPDSDVRFLLSESGSGKGAAMVTAVAYRLAEQHRQIEETLAHFHLTKDMLLEVKKRMRAEMELGLRKQTHNNAVVKMLPSFVRRTPDGTENGDFLALDLGGTNFRVLLVKIRSGKKRTVEMHNKIYAIPIEIMQGTGEELFDHIVSCISDFLDYMGIKGPRMPLGFTFSFPCQQTSLDAGILITWTKGFKATDCVGHDVVTLLRDAIKRREEFDLDVVAVVNDTVGTMMTCAYEEPTCEVGLIVGTGSNACYMEEMKNVEMVEGDQGQMCINMEWGAFGDNGCLDDIRTHYDRLVDEYSLNAGKQRYEKMISGMYLGEIVRNILIDFTKKGFLFRGQISETLKTRGIFETKFLSQIESDRLALLQVRAILQQLGLNSTCDDSILVKTVCGVVSRRAAQLCGAGMAAVVDKIRENRGLDRLNVTVGVDGTLYKLHPHFSRIMHQTVKELSPKCNVSFLLSEDGSGKGAALITAVGVRLRTEASS [HK1],51.5,51.9,-0.0302,-0.149,-0.647,-0.641
MASGRDERPPWRLGRLLLLMCLLLLGSSARAAHIKKAEATTTTTSAGAEAAEGQFDRYYHEEELESALREAAAAGLPGLARLFSIGRSVEGRPLWVLRLTAGLGSLIPEGDAGPDAAGPDAAGPLLPGRPQVKLVGNMHGDETVSRQVLIYLARELAAGYRRGDPRLVRLLNTTDVYLLPSLNPDGFERAREGDCGFGDGGPSGASGRDNSRGRDLNRSFPDQFSTGEPPALDEVPEVRALIEWIRRNKFVLSGNLHGGSVVASYPFDDSPEHKATGIYSKTSDDEVFKYLAKAYASNHPIMKTGEPHCPGDEDETFKDGITNGAHWYDVEGGMQDYNYVWANCFEITLELSCCKYPPASQLRQEWENNRESLITLIEKVHIGVKGFVKDSITGSGLENATISVAGINHNITTGRFGDFYRLLVPGTYNLTVVLTGYMPLTVTNVVVKEGPATEVDFSLRPTVTSVIPDTTEAVSTASTVAIPNILSGTSSSYQPIQPKDFHHHHFPDMEIFLRRFANEYPNITRLYSLGKSVESRELYVMEISDNPGVHEPGEPEFKYIGNMHGNEVVGRELLLNLIEYLCKNFGTDPEVTDLVHNTRIHLMPSMNPDGYEKSQEGDSISVIGRNNSNNFDLNRNFPDQFVQITDPTQPETIAVMSWMKSYPFVLSANLHGGSLVVNYPFDDDEQGLATYSKSPDDAVFQQIALSYSKENSQMFQGRPCKNMYPNEYFPHGITNGASWYNVPGGMQDWNYLQTNCFEVTIELGCVKYPLEKELPNFWEQNRRSLIQFMKQVHQGVRGFVLDATDGRGILNATISVAEINHPVTTYKTGDYWRLLVPGTYKITASARGYNPVTKNVTVKSEGAIQVNFTLVRSSTDSNNESKKGKGASSSTNDASDPTTKEFETLIKDLSAENGLESLMLRSSSNLALALYRYHSYKDLSEFLRGLVMNYPHITNLTNLGQSTEYRHIWSLEISNKPNVSEPEEPKIRFVAGIHGNAPVGTELLLALAEFLCLNYKKNPAVTQLVDRTRIVIVPSLNPDGRERAQEKDCTSKIGQTNARGKDLDTDFTNNASQPETKAIIENLIQKQDFSLSVALDGGSMLVTYPYDKPVQTVENKETLKHLASLYANNHPSMHMGQPSCPNKSDENIPGGVMRGAEWHSHLGSMKDYSVTYGHCPEITVYTSCCYFPSAARLPSLWADNKRSLLSMLVEVHKGVHGFVKDKTGKPISKAVIVLNEGIKVQTKEGGYFHVLLAPGVHNIIAIADGYQQQHSQVFVHHDAASSVVIVFDTDNRIFGLPRELVVTVSGATMSALILTACIIWCICSIKSNRHKDGFHRLRQHHDEYEDEIRMMSTGSKKSLLSHEFQDETDTEEETLYSSKH [CPD],55.5,53.8,0.211,-0.0862,-2.91,-3.88
MLLPNILLTGTPGVGKTTLGKELASKSGLKYINVGDLAREEQLYDGYDEEYDCPILDEDRVVDELDNQMREGGVIVDYHGCDFFPERWFHIVFVLRTDTNVLYERLETRGYNEKKLTDNIQCEIFQVLYEEATASYKEEIVHQLPSNKPEELENNVDQILKWIEQWIKDHNS [AK6],46.9,49.8,0.193,-0.0162,1.22,1.07
